The supplement of paper PMC9112550, “Optimization of the antimicrobial peptide Bac7 by deep mutational scanning” (BMC Biology, 2022)

System: Escherichia coli TOP10
Experiment: shrunken log2 fold change of peptide-encoding DNA abundance (4.5 h post-induction vs induction); higher = less antimicrobial activity (less host growth inhibition)
Details: time post-induction: 4.5 h; library: site-saturation at positions 5, 18, 19, 20
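Also: peptides expressed intracellularly from a pBAD plasmid library in pooled LB shake-flask culture, induced with 0.3% L-arabinose, DNA abundance read by NGS, three biological replicates, DESeq2 with apeglm shrinkage.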

Sequence	shrunken log2 fold change
RRIRCRPPRLPRPRPRPHLHPRP	-0.626
RRIRPRPPRLPRPRPRPHPGPRP	2.42
RRIRLRPPRLPRPRPRPIYEPRP	-0.291
RRIRCRPPRLPRPRPRPPWLPRP	0.241
RRIRDRPPRLPRPRPRPQIMPRP	0.0478
RRIRWRPPRLPRPRPRPTINPRP	-0.303
RRIRSRPPRLPRPRPRPVTSPRP	-0.132
RRIRWRPPRLPRPRPRPVGSPRP	0.445
RRIRWRPPRLPRPRPRPKDCPRP	-0.0724
RRIRFRPPRLPRPRPRPLWMPRP	-0.0523
RRIRWRPPRLPRPRPRPLPDPRP	0.672
RRIRVRPPRLPRPRPRPPRAPRP	0.641
RRIRARPPRLPRPRPRPPWNPRP	0.427
RRIRDRPPRLPRPRPRPFPVPRP	-0.0955
RRIRERPPRLPRPRPRPNSNPRP	-0.828
RRIRCRPPRLPRPRPRPPPMPRP	1.08
RRIRFRPPRLPRPRPRPHIQPRP	-0.594
RRIRLRPPRLPRPRPRPSRPPRP	0.233
RRIRSRPPRLPRPRPRPDNEPRP	-0.0519
RRIRTRPPRLPRPRPRPDKQPRP	0.0419
RRIRVRPPRLPRPRPRPTSSPRP	-0.0575
RRIRSRPPRLPRPRPRPRGAPRP	0.737
RRIRQRPPRLPRPRPRPGNYPRP	-0.222
RRIRLRPPRLPRPRPRPYEDPRP	-0.125
RRIRSRPPRLPRPRPRPTSFPRP	-0.189

Sequence	shrunken log2 fold change
RRIRPRPPRLPRPRPRPYTWPRP	-0.446
RRIRNRPPRLPRPRPRPKCCPRP	-0.0855
RRIRVRPPRLPRPRPRPCVKPRP	-0.657
RRIRIRPPRLPRPRPRPKHWPRP	0.357
RRIRLRPPRLPRPRPRPCRFPRP	-0.226
RRIRYRPPRLPRPRPRPDRHPRP	-0.189
RRIRKRPPRLPRPRPRPMTLPRP	-0.0281
RRIRDRPPRLPRPRPRPLTCPRP	0.254
RRIRHRPPRLPRPRPRPEVFPRP	-0.0194
RRIRFRPPRLPRPRPRPEPTPRP	0.805
RRIRCRPPRLPRPRPRPTKLPRP	-0.132
RRIRQRPPRLPRPRPRPFEEPRP	-0.138
RRIRHRPPRLPRPRPRPRNFPRP	0.134
RRIRSRPPRLPRPRPRPWNGPRP	-0.0136
RRIRCRPPRLPRPRPRPEIRPRP	-0.123
RRIRIRPPRLPRPRPRPMVFPRP	-0.263
RRIRNRPPRLPRPRPRPFFTPRP	-0.147
RRIRVRPPRLPRPRPRPKAFPRP	0.00341
RRIRRRPPRLPRPRPRPNCNPRP	-0.0828
RRIRTRPPRLPRPRPRPAPNPRP	0.0436
RRIRGRPPRLPRPRPRPDQDPRP	1.06
RRIRGRPPRLPRPRPRPVSIPRP	0.00516
RRIRNRPPRLPRPRPRPCDDPRP	0.0873
RRIRYRPPRLPRPRPRPCAAPRP	-0.642
RRIRPRPPRLPRPRPRPLTQPRP	0.0664

Sequence	shrunken log2 fold change
RRIRARPPRLPRPRPRPALMPRP	0.534
RRIRVRPPRLPRPRPRPWQSPRP	0.0169
RRIRIRPPRLPRPRPRPDGIPRP	-0.0104
RRIRFRPPRLPRPRPRPICQPRP	-0.182
RRIRQRPPRLPRPRPRPLRTPRP	0.691
RRIRFRPPRLPRPRPRPQKYPRP	-0.864
RRIRCRPPRLPRPRPRPIFPPRP	0.247
RRIRTRPPRLPRPRPRPNVSPRP	-0.0389
RRIRLRPPRLPRPRPRPGCYPRP	-0.115
RRIRMRPPRLPRPRPRPFFYPRP	-0.123
RRIRARPPRLPRPRPRPLFPPRP	0.148
RRIRERPPRLPRPRPRPQMAPRP	0.00684
RRIRMRPPRLPRPRPRPCYMPRP	-0.605
RRIRKRPPRLPRPRPRPSQFPRP	0.164
RRIRFRPPRLPRPRPRPYSTPRP	0.0586
RRIRERPPRLPRPRPRPFARPRP	0.102
RRIRTRPPRLPRPRPRPLFVPRP	-0.382
RRIRDRPPRLPRPRPRPHNHPRP	-0.612
RRIRHRPPRLPRPRPRPLSAPRP	0.242
RRIRNRPPRLPRPRPRPTYHPRP	-0.526
RRIRCRPPRLPRPRPRPHSLPRP	-0.493
RRIRKRPPRLPRPRPRPTVVPRP	1
RRIRQRPPRLPRPRPRPGGAPRP	0.485
RRIRIRPPRLPRPRPRPHPRPRP	0.192
RRIRARPPRLPRPRPRPIFVPRP	0.233

Sequence	shrunken log2 fold change
RRIRTRPPRLPRPRPRPYIMPRP	-0.753
RRIRWRPPRLPRPRPRPYFQPRP	1.83
RRIRRRPPRLPRPRPRPYSDPRP	0.186
RRIRTRPPRLPRPRPRPQLLPRP	0.0259
RRIRERPPRLPRPRPRPNNMPRP	-0.713
RRIRERPPRLPRPRPRPYEPPRP	0.029
RRIRYRPPRLPRPRPRPHCAPRP	-0.544
RRIRFRPPRLPRPRPRPVHTPRP	-0.0075
RRIRIRPPRLPRPRPRPYSKPRP	-1.2
RRIRDRPPRLPRPRPRPRHHPRP	-0.043
RRIRFRPPRLPRPRPRPPIWPRP	0.317
RRIRNRPPRLPRPRPRPGCSPRP	0.121
RRIRNRPPRLPRPRPRPIQNPRP	-0.139
RRIRIRPPRLPRPRPRPALGPRP	0.0956
RRIRSRPPRLPRPRPRPLNYPRP	-0.166
RRIRTRPPRLPRPRPRPQPGPRP	0.165
RRIRLRPPRLPRPRPRPGCLPRP	-0.129
RRIRIRPPRLPRPRPRPQPLPRP	-0.371
RRIRGRPPRLPRPRPRPKAVPRP	0.89
RRIRTRPPRLPRPRPRPEWPPRP	0.351
RRIRHRPPRLPRPRPRPEYHPRP	-0.317
RRIRPRPPRLPRPRPRPLKAPRP	-0.0747
RRIRRRPPRLPRPRPRPKILPRP	-0.199
RRIRERPPRLPRPRPRPEAEPRP	0.315
RRIRYRPPRLPRPRPRPTVLPRP	0.00488

Sequence	shrunken log2 fold change
RRIRGRPPRLPRPRPRPECVPRP	1.72
RRIRQRPPRLPRPRPRPKDDPRP	-0.0913
RRIRWRPPRLPRPRPRPPDEPRP	0.654
RRIRCRPPRLPRPRPRPQMKPRP	-0.514
RRIRSRPPRLPRPRPRPDTKPRP	-0.248
RRIRTRPPRLPRPRPRPPMLPRP	0.0279
RRIRSRPPRLPRPRPRPCNGPRP	-0.0821
RRIRLRPPRLPRPRPRPMSDPRP	0.0343
RRIRDRPPRLPRPRPRPDWIPRP	0.189
RRIRGRPPRLPRPRPRPYDQPRP	0.0878
RRIRTRPPRLPRPRPRPDAQPRP	0.193
RRIRRRPPRLPRPRPRPTGGPRP	0.296
RRIRRRPPRLPRPRPRPQQTPRP	-0.0146
RRIRFRPPRLPRPRPRPNLEPRP	-0.257
RRIRKRPPRLPRPRPRPKEHPRP	0.405
RRIRKRPPRLPRPRPRPMNVPRP	0.13
RRIRSRPPRLPRPRPRPSEKPRP	0.029
RRIRERPPRLPRPRPRPLWHPRP	-0.0827
RRIRRRPPRLPRPRPRPIVGPRP	0.0287
RRIRQRPPRLPRPRPRPMGNPRP	-0.136
RRIRQRPPRLPRPRPRPERAPRP	0.53
RRIRWRPPRLPRPRPRPLCPPRP	0.0748
RRIRDRPPRLPRPRPRPCIEPRP	-0.158
RRIRTRPPRLPRPRPRPIPTPRP	-0.606
RRIRWRPPRLPRPRPRPALIPRP	0.0212
